# According to US20220073613A1 (XILIO DEVELOPMENT, published 2022):
# Residue numbers refer to the chain shown, from its start. Names and notes keep the numbering of the source.
# B1: Antibody 2-14, activated by protease (antibody)
# light: EIVLTQSPDFQSVTPKEKVTITCSANSALSYMYWYQQKPDQSPKLWVHGTSNLASGVPSRFSGSGSGTDFTLTINSLEAEDAATYYCHHWSNTQWTFGGGTKVEIKRTVAAPSVFIFPPSDEQLKSGTASVVCLLNNFYPREAKVQWKVDNALQSGNSQESVTEQDSKDSTYSLSSTLTLSKADYEKHKVYACEVTHQGLSSPVTKSFNRGEC
# heavy: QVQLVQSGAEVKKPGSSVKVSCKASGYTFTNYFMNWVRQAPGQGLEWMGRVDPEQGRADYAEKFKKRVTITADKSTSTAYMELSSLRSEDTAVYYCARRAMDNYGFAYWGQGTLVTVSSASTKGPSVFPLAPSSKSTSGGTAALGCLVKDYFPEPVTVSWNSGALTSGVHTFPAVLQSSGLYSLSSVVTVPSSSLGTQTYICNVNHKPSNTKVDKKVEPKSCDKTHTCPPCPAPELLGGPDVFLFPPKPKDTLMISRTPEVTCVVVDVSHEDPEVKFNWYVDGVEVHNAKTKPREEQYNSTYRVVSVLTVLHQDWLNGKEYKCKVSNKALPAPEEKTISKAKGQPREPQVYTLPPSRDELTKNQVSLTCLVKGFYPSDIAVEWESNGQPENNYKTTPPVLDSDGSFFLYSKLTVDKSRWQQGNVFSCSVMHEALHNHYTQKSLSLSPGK
# notes: also called Antibody 2-14 with protease (+); not shown: remnant of the cleaved linker (part of VPLSLY and spacer SGG)
# B2: Antibody 2-7 (Activated) (antibody)
# light: B1 light
# heavy: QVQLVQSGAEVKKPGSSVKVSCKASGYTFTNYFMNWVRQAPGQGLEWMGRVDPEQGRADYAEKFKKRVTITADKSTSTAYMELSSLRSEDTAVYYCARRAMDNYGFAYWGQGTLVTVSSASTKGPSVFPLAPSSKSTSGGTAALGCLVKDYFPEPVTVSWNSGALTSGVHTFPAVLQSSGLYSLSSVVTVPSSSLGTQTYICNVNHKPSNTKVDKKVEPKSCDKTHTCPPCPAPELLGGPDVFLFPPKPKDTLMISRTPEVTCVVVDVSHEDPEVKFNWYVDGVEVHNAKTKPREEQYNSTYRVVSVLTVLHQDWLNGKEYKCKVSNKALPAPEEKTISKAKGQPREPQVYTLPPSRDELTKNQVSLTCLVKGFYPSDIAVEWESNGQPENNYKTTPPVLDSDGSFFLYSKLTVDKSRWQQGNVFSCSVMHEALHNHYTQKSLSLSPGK
# notes: also called Antibody 2-7 with protease; not shown: remnant of the cleaved linker (part of VPLSLY and spacer SGG)
# B3: Antibody 2-13 (Activated) (antibody, not shown: small tags and cut ends)
# light: B1 light
# heavy: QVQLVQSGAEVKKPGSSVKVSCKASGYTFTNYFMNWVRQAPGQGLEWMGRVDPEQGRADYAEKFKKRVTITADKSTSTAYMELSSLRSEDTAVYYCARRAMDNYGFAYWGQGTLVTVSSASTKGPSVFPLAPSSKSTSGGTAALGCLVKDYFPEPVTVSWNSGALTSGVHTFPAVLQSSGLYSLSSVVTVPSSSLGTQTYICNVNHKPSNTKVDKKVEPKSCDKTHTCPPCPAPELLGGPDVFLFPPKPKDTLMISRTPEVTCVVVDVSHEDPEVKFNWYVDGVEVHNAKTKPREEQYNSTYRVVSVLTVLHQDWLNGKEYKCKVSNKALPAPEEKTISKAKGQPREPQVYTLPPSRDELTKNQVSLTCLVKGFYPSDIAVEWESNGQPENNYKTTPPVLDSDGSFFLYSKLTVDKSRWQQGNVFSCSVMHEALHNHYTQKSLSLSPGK
# B4: Antibody 2-16 (colon tumor) (antibody)
# heavy chain: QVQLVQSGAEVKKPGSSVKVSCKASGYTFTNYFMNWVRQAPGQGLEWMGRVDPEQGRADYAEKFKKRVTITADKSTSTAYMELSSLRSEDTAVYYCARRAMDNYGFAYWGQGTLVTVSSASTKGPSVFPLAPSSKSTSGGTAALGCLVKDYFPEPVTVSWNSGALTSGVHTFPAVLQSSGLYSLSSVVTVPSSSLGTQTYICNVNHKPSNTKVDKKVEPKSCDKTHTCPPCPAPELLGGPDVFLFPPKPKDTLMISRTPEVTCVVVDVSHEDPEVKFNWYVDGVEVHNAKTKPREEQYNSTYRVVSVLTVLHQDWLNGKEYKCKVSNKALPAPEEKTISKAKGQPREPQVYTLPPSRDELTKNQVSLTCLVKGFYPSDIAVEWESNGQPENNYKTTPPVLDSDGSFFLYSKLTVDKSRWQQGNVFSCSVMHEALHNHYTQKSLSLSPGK
# light chain with masking components, cleaved: SGGEIVLTQSPDFQSVTPKEKVTITCSANSALSYMYWYQQKPDQSPKLWVHGTSNLASGVPSRFSGSGSGTDFTLTINSLEAEDAATYYCHHWSNTQWTFGGGTKVEIKRTVAAPSVFIFPPSDEQLKSGTASVVCLLNNFYPREAKVQWKVDNALQSGNSQESVTEQDSKDSTYSLSSTLTLSKADYEKHKVYACEVTHQGLSSPVTKSFNRGEC
# notes: also called Antibody 2-16 after culture in colon tumor conditioned media (colon2 4 sept colon tumor sample)
# B5: parental anti-CTLA4 antibody (9D9), murine IgG2a (antibody)
# light: DIVMTQTTLSLPVSLGDQASISCRSSQSIVHSNGNTYLEWYLQKPGQSPKLLIYKVSNRFSGVPDRFSGSGSGTDFTLKISRVEAEDLGVYYCFQGSHVPYTFGGGTKLEIKRADAAPTVSIFPPSSEQLTSGGASVVCFLNNFYPKDINVKWKIDGSERQNGVLNSWTDQDSKDSTYSMSSTLTLTKDEYERHNSYTCEATHKTSTSPIVKSFNRNEC
# heavy: EAKLQESGPVLVKPGASVKMSCKASGYTFTDYYMNWVKQSHGKSLEWIGVINPYNGDTSYNQKFKGKATLTVDKSSSTAYMELNSLTSEDSAVYYCARYYGSWFAYWGQGTLITVSSAKTTAPSVYPLAPVCGDTTGSSVTLGCLVKGYFPEPVTLTWNSGSLSSGVHTFPAVLQSDLYTLSSSVTVTSSTWPSQSITCNVAHPASSTKVDKKIEPRGPTIKPCPPCKCPAPNLLGGPSVFIFPPKIKDVLMISLSPIVTCVVVDVSEDDPDVQISWFVNNVEVHTAQTQTHREDYNSTLRVVSALPIQHQDWMSGKEFKCKVNNKDLPAPIERTISKPKGSVRAPQVYVLPPPEEEMTKKQVTLTCMVTDFMPEDIYVEWTNNGKTELNYKNTEPVLDSDGSYFMYSKLRVEKKNWVERNSYSCSVVHEGLHNHHTTKSFSRTPGK
# notes: Made at ATUM by HEK293 transient expression as murine IgG2a; reactive against murine CTLA4; also called 9D9.IgG2a; 9D9 IgG2a
# B6: parental humanized anti-CTLA4 antibody 1 (antibody, human IgG1, kappa)
# light: DIVMTQTPLSLSVTPGQPASISCRSSQSLLNSDGNTYLYWYLQKPGQSPQLLIYLVSKLGSGVPNRFSGSGSGTDFTLKISRVEAEDVGVYYCVQGTHDPWTFGGGTKVEIKRTVAAPSVFIFPPSDEQLKSGTASVVCLLNNFYPREAKVQWKVDNALQSGNSQESVTEQDSKDSTYSLSSTLTLSKADYEKHKVYACEVTHQGLSSPVTKSFNRGEC
# heavy: not shown
# notes: Humanized IgG1
# B7: Antibody 2-10 (antibody, human IgG1, kappa)
# light: ACPFPALELCGGGSSGGSGGSGGSGSGGEIVLTQSPDFQSVTPKEKVTITCSANSALSYMYWYQQKPDQSPKLWVHGTSNLASGVPSRFSGSGSGTDFTLTINSLEAEDAATYYCHHWSNTQWTFGGGTKVEIKRTVAAPSVFIFPPSDEQLKSGTASVVCLLNNFYPREAKVQWKVDNALQSGNSQESVTEQDSKDSTYSLSSTLTLSKADYEKHKVYACEVTHQGLSSPVTKSFNRGEC
# heavy: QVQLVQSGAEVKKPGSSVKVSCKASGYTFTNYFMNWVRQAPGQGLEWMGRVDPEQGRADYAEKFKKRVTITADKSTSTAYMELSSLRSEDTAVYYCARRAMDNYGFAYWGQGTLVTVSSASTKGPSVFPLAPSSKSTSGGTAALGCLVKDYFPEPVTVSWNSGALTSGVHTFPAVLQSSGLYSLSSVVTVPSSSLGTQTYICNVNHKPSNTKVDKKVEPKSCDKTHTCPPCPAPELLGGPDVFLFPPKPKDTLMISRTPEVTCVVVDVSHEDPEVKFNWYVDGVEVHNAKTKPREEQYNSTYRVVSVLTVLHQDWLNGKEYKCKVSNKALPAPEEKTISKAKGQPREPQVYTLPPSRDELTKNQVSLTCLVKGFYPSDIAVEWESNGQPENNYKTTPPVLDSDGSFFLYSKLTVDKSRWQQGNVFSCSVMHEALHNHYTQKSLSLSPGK
# notes: also called non-cleavable masked Antibody 2-10
# B8: Antibody 2-14 (antibody, human IgG1, kappa)
# light: ACPGKGLPSCGGGSSGGSGVPLSLYSGGEIVLTQSPDFQSVTPKEKVTITCSANSALSYMYWYQQKPDQSPKLWVHGTSNLASGVPSRFSGSGSGTDFTLTINSLEAEDAATYYCHHWSNTQWTFGGGTKVEIKRTVAAPSVFIFPPSDEQLKSGTASVVCLLNNFYPREAKVQWKVDNALQSGNSQESVTEQDSKDSTYSLSSTLTLSKADYEKHKVYACEVTHQGLSSPVTKSFNRGEC
# heavy: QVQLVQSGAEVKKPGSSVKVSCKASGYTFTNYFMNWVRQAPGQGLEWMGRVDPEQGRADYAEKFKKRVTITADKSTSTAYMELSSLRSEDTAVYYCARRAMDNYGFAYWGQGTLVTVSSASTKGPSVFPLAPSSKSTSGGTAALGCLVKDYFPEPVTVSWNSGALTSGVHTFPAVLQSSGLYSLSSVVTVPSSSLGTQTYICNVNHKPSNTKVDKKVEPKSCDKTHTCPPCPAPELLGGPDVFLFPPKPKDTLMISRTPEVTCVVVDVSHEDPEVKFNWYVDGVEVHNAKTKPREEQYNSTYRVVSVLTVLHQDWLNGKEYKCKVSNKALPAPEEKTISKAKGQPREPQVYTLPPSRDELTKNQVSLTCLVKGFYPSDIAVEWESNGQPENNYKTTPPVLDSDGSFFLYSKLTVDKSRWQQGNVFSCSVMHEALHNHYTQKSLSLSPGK
# B9: Antibody 2-15 (antibody, human IgG1, kappa)
# light: B7 light with F4G, P5K, A6G, E8P, L9S
# heavy: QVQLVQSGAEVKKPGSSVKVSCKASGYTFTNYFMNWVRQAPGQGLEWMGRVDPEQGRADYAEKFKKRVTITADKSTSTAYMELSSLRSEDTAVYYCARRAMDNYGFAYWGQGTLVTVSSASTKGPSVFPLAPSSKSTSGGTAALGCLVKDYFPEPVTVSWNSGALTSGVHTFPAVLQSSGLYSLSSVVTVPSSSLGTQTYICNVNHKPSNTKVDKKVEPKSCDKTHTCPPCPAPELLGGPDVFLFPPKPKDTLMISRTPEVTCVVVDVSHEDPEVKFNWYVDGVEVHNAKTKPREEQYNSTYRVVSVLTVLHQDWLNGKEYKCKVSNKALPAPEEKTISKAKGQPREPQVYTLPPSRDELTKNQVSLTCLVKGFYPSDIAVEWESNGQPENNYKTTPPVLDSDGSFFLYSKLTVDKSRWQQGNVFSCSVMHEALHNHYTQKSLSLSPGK
# B10: Antibody 2-16 (antibody, human IgG1, kappa)
# light: ACPFPALELCSSGGSGPDSGGFMLTSGGEIVLTQSPDFQSVTPKEKVTITCSANSALSYMYWYQQKPDQSPKLWVHGTSNLASGVPSRFSGSGSGTDFTLTINSLEAEDAATYYCHHWSNTQWTFGGGTKVEIKRTVAAPSVFIFPPSDEQLKSGTASVVCLLNNFYPREAKVQWKVDNALQSGNSQESVTEQDSKDSTYSLSSTLTLSKADYEKHKVYACEVTHQGLSSPVTKSFNRGEC
# heavy: not shown
# B11: masking peptide CNLIVEGHC (peptide)
# peptide: CNLIVEGHC
# notes: Selected from the Ph.D.-C7C phage library; also called sterically occluded peptide
# B12: Antibody 2-7 (antibody, human IgG1, kappa)
# light: ACPFPALELCGGSGGSVPLSLYSGGEIVLTQSPDFQSVTPKEKVTITCSANSALSYMYWYQQKPDQSPKLWVHGTSNLASGVPSRFSGSGSGTDFTLTINSLEAEDAATYYCHHWSNTQWTFGGGTKVEIKRTVAAPSVFIFPPSDEQLKSGTASVVCLLNNFYPREAKVQWKVDNALQSGNSQESVTEQDSKDSTYSLSSTLTLSKADYEKHKVYACEVTHQGLSSPVTKSFNRGEC
# heavy: not shown
# What was measured:
# [1] = biological target: CTLA4 on CTLA4 expressing Jurkat cells (UniProt P16410 36-223, limits assumed); assay: cell-based or functional assay
# Chain of CTLA4 on CTLA4 expressing Jurkat cells (P16410 36-223 limits assumed): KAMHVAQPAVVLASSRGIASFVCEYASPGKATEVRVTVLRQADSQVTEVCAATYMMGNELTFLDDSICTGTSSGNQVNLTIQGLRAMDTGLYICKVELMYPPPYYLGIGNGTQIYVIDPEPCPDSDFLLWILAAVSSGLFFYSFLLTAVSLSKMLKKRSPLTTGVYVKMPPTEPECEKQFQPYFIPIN
# [2] = biological target: T1, human CTLA4-Fc (R&D Systems, #7268-CT) (human, UniProt P16410 36-162); assay: ELISA, human CTLA4-Fc coated; protease +
# T1 construct: Bought; not shown: Fc part
# T1 sequence (P16410 36-162 limits assumed): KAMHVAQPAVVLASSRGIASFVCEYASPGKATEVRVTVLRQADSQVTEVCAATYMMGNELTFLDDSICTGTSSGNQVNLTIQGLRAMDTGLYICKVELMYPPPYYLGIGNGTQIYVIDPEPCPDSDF
# [3] = biological target: T1, human CTLA4-Fc (R&D Systems, #7268-CT); assay: CTLA4 ELISA (luminescence) after culture of Antibody 2-14 in colon tumor conditioned media; the text gives 100% of molecules cleaved
# [4] = biological target: T1, human CTLA4-Fc (R&D Systems, #7268-CT); assay: ELISA, human CTLA4-Fc coated; protease +; remark: listed apart in the source
# [5] = biological target: T1, human CTLA4-Fc (R&D Systems, #7268-CT); assay: low density antigen binding ELISA, human CTLA4-Fc coated; after protease digestion
# [6] = biological target: T1, human CTLA4-Fc (R&D Systems, #7268-CT); assay: CTLA4 ELISA (luminescence) after culture of Antibody 2-16 in colon tumor conditioned media; the text gives 100% of molecules cleaved
# [7] = biological target: T2, muCTLA4hsIgG protein (Abcam) (murine, UniProt P09793 36-161, limits assumed); assay: low density antigen binding ELISA, muCTLA4hsIgG coated; average of three experiments
# T2 construct: Bought; also called murine CTLA4; not shown: human IgG part (hsIgG)
# [8] = biological target: T3, murine CTLA4-Fc (R&D Systems) (murine, UniProt P09793 36-162); assay: ELISA: plate coated with murine CTLA4-Fc (R&D Systems), detection anti-muKappa-HRP, chemiluminescence (Example 3A)
# T3 construct: Bought; also called muCTLA4-hsIgG (R&D Systems); not shown: human IgG Fc part (hsIgG)
# [9] = biological target: T1, human CTLA4-Fc (R&D Systems, #7268-CT); assay: ELISA: plate coated with human CTLA4-Fc (R&D Systems), detection anti-huKappa-HRP, chemiluminescence; signal as fraction of the parental antibody's RLU (Example 5)
# [10] = biological target: T1, human CTLA4-Fc (R&D Systems, #7268-CT); assay: ELISA, human CTLA4-Fc coated; protease -
# [11] = biological target: T1, human CTLA4-Fc (R&D Systems, #7268-CT); assay: low density antigen binding ELISA, human CTLA4-Fc coated; no protease
# [12] = biological target: T1, human CTLA4-Fc (R&D Systems, #7268-CT); assay: CTLA4 ELISA (luminescence) after culture of the non-cleavable masked antibody in RPMI as control
# [13] = biological target: T1, human CTLA4-Fc (R&D Systems, #7268-CT); assay: ELISA, human CTLA4-Fc coated; protease -; remark: listed apart in the source
# [14] = biological target: T1, human CTLA4-Fc (R&D Systems, #7268-CT); assay: CTLA4 ELISA (luminescence) after culture of the masked antibody in RPMI as control
# [15] = biological target: T4, CTLA4 coated on an MSD plate (Homo sapiens (Human), UniProt P16410 36-161); assay: binding to a CTLA4-coated MSD plate; antibody from plasma of MB49-bearing B-hCTLA4 mice 4 days after 10 mg/kg (28 % cleaved by FIG. 24D), IgG quantified by ELISA, 3-fold dilutions (Example 16)
# T4 construct: not shown: The carrier of the coated recombinant CTLA4; It is probably the Fc of a CTLA4-Fc, as in the other ELISAs
# T4 sequence (P16410 36-161 limits assumed): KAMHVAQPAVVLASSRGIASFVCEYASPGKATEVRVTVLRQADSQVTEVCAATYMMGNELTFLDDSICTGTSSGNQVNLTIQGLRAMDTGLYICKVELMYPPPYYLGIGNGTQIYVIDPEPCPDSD
# [16] = biological target: T1, human CTLA4-Fc (R&D Systems, #7268-CT); assay: CTLA4 ELISA (luminescence) after culture of the non-cleavable masked antibody in colon tumor conditioned media
# [17] = biological target: B5; assay: SPR, Biacore T200, 37 C; 9D9 coupled to CM5 chip, peptide as analyte; steady-state model
binder,measurement,setting,value
B1,"EC50 of FcγRIIIa (ADCC) reporter activation, after exposure to protease",[1],0.0028 ng/mL
same,EC50,[2],0.41 nM
same,EC50 (read off the curve),[3],~0.4 nM
B2,EC50,[4],0.58 nM
same,EC50,[5],0.58 nM
B3,EC50,[5],0.57 nM
B4,EC50 (read off the curve),[6],~0.4 nM
B5,EC50,[7],0.31 nM
same,EC50 (read off the curve),[8],~0.2 nM
B6,EC50 (read off the curve),[9],~0.7 nM
B7,EC50,[10],29.4 nM
same,EC50,[11],29.4 nM
same,EC50 (read off the curve),[12],~8 nM
B8,"EC50 of FcγRIIIa (ADCC) reporter activation, without protease",[1],33 ng/mL
same,EC50,[13],39.4 nM
same,EC50 (read off the curve),[14],~10 nM
same,EC50 (read off the curve),[15],~20 ng/mL
B9,"EC50 of FcγRIIIa (ADCC) reporter activation, after exposure to protease",[1],10 ng/mL
same,"EC50 of FcγRIIIa (ADCC) reporter activation, without protease",[1],19 ng/mL
same,EC50,[2],17.3 nM
same,EC50,[13],24.3 nM
same,EC50 (read off the curve),[12],~7 nM
same,EC50 (read off the curve),[16],~8 nM
B10,EC50 (read off the curve),[14],~6 nM
B11,Kd,[17],11000 nM
B12,EC50,[10],33.9 nM
same,EC50,[11],33.9 nM
